Data: patent publication US20240309340
Residue numbers refer to the chain shown, from its start. Read-outs that look alike come from different tables or passages of the source.

Columns and labels:
[1] = tested on: G077 Phi29 DNA polymerase D145A D145A (Bacillus phage phi29?); assay: cleavage_in_vitro; settings: RCA +++
[2] = tested on: H004 Phi29 DNA polymerase Y224K,E239G,V250I,L253A,E375Y,A437G,A484E,E508R,D510K,K512Y,E515Q,D570M (Bacillus phage phi29?); assay: cleavage_in_vitro; settings: primer hydrolysed in 2 min
[3] = tested on: H020 Phi29 DNA polymerase Y224K,E239G,V250I,L253A,E375S,A437G,A484E,E508R,D510K,K512Y,E515Q,D570M (Bacillus phage phi29?); assay: cleavage_in_vitro; settings: RCA ++++
[4] = tested on: G075 Phi29 DNA polymerase K143D K143D (Bacillus phage phi29?); assay: cleavage_in_vitro; settings: RCA +++
[5] = tested on: G087 Phi29 DNA polymerase Y148L Y148L (Bacillus phage phi29?); assay: cleavage_in_vitro; settings: RCA +++
[6] = tested on: H022 Phi29 DNA polymerase Y224K,E239G,V250I,L253A,E375Y,K379S,A437G,A484E,E508R,D510K,K512Y,E515Q,D570M (Bacillus phage phi29?); assay: cleavage_in_vitro; settings: RCA ++++
[7] = tested on: H019 Phi29 DNA polymerase Y224K,E239G,V250I,L253A,E375A,A437G,A484E,E508R,D510K,K512Y,E515Q,D570M (Bacillus phage phi29?); assay: cleavage_in_vitro; settings: RCA ++++
[8] = tested on: G059 Phi29 DNA polymerase E14I E14I (Bacillus phage phi29?); assay: cleavage_in_vitro; settings: RCA +++
[9] = tested on: H034 Phi29 DNA polymerase K143D,Y224K,E239G,V250I,L253A,E375Y,A437G,A484E,E508R,D510K,K512Y,E515Q,D570M (Bacillus phage phi29?); settings: conversion of modified dNTPs; 5 mM Mg(OAc)2
[10] = tested on: H020 Phi29 DNA polymerase Y224K,E239G,V250I,L253A,E375S,A437G,A484E,E508R,D510K,K512Y,E515Q,D570M (Bacillus phage phi29?); settings: conversion of modified dNTPs; 5 mM Mg(OAc)2
[11] = tested on: H022 Phi29 DNA polymerase Y224K,E239G,V250I,L253A,E375Y,K379S,A437G,A484E,E508R,D510K,K512Y,E515Q,D570M (Bacillus phage phi29?); settings: conversion of modified dNTPs; 5 mM Mg(OAc)2
[12] = tested on: H019 Phi29 DNA polymerase Y224K,E239G,V250I,L253A,E375A,A437G,A484E,E508R,D510K,K512Y,E515Q,D570M (Bacillus phage phi29?); settings: conversion of modified dNTPs; 5 mM Mg(OAc)2
[13] = tested on: H004 Phi29 DNA polymerase Y224K,E239G,V250I,L253A,E375Y,A437G,A484E,E508R,D510K,K512Y,E515Q,D570M (Bacillus phage phi29?); settings: conversion of modified dNTPs; 100 pM primer/template, 300 pM protein, 5 mM Mg(OAc)2, 10 mM DTT, 30 min; Table 5 gives 19.9%
[14] = biological target: T1, tsH042' Phi29 DNA polymerase (K143S, sso7d fusion) (Bacillus phage phi29?) (UniProt P03680); settings: template aligned length, single molecule sequencing
T1 sequence: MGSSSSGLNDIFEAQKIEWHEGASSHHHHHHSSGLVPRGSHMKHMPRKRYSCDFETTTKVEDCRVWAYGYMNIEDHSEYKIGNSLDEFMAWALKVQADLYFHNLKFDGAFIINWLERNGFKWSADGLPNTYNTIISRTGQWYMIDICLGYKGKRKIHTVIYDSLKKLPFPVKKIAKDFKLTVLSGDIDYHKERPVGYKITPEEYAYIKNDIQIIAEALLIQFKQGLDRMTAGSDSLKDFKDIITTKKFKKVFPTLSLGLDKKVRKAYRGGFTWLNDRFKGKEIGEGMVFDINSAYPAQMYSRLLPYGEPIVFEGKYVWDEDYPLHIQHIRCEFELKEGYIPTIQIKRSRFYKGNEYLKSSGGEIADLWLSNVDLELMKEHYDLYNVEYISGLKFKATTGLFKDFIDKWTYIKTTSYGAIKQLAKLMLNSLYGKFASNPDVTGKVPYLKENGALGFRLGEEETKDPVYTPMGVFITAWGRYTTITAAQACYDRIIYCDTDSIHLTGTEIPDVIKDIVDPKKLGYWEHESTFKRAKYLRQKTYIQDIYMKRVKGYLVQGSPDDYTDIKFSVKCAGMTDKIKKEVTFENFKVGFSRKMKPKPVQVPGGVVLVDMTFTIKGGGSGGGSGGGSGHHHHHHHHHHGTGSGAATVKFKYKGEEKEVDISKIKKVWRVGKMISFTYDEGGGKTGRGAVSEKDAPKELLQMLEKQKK

[15] = biological target: T2, tsH039' Phi29 DNA polymerase (Y148L, sso7d fusion) (Bacillus phage phi29?) (UniProt P03680); settings: template aligned length, single molecule sequencing
T2 sequence: T1 sequence with S184K, Y189L

[16] = biological target: T3, tsH034' Phi29 DNA polymerase (K143D, sso7d fusion) (Bacillus phage phi29?) (UniProt P03680); settings: template aligned length, single molecule sequencing
T3 sequence: T1 sequence with S184D

## fluorescent-labelled primer (exonuclease substrate)
[1]
  activity: 68.6%
[2]
  activity: 38%
[3]
  activity: 56.5%
[4]
  activity: 37.5%
[5]
  activity: 34.5%
[6]
  activity: 62.2%
[7]
  activity: 39.1%
[8]
  activity: 52.6%

## primer/template (modified dNTP conversion)
[9]
  activity: 5.4%
[10]
  activity: 46.2%
[11]
  activity: 32.5%
[12]
  activity: 22.2%
[13]
  activity: 48.4%

## circular DNA template with primer (single molecule sequencing)
[14]
  activity: 342 bases
[15]
  activity: 436 bases
[16]
  activity: 282 bases
